Values of other authors as cited in article PMC9849996.

Target: ROS-GC1 (Bos taurus) (UniProt P55203)
Experiment: SPR; given as Ka

Sequence of UniProt P55203 (P55203 57-1110): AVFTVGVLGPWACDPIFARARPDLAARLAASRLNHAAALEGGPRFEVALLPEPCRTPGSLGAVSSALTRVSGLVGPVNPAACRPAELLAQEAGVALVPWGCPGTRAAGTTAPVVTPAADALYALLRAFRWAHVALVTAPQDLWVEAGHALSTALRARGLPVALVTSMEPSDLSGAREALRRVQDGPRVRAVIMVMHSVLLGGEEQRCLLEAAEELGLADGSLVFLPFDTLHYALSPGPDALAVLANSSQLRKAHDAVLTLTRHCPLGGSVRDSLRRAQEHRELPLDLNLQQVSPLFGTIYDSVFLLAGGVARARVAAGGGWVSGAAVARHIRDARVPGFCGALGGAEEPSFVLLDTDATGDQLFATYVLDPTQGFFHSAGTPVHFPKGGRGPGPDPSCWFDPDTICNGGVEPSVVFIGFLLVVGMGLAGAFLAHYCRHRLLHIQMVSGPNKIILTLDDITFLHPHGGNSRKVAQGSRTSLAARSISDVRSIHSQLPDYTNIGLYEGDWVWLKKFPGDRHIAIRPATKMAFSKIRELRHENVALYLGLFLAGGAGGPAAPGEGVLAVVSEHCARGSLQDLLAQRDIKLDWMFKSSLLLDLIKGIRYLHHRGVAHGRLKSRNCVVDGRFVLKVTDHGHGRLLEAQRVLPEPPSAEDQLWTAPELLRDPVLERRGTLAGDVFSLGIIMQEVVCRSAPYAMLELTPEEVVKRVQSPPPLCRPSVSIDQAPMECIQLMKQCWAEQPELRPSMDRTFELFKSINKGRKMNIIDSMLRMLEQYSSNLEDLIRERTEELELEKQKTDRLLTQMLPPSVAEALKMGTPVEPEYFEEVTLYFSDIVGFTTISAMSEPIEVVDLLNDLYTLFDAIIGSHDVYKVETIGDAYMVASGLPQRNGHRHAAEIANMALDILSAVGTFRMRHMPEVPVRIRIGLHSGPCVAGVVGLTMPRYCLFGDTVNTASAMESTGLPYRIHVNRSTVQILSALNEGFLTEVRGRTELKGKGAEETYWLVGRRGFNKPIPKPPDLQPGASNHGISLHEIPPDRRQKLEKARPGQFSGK

In the case of frequenin (from UniProt Q2V8Y7), the Kd is given as 426 nM.
